The record followed here is patent US20150056301A1 (CANBAS, published 2015).

Where no end group is shown, it is not given here. [ ]: non-standard residue; d: D form. dPhe(4-NO2) = N[C@H](Cc1ccc([N+](=O)[O-])cc1)C(=O)O; dPhe(F5) = N[C@H](Cc1c(F)c(F)c(F)c(F)c1F)C(=O)O; dBpa = N[C@H](Cc1ccc(C(=O)c2ccccc2)cc1)C(=O)O; dCha = N[C@H](CC1CCCCC1)C(=O)O Bounds are passed on as bounds.

Common to all, as to assay: cell-based or functional assay
Assay [1] concerns the target T1, baculovirus derived recombinant human full length Chk1 with histidine tag (human, UniProt O14757 1-476).
T1 sequence: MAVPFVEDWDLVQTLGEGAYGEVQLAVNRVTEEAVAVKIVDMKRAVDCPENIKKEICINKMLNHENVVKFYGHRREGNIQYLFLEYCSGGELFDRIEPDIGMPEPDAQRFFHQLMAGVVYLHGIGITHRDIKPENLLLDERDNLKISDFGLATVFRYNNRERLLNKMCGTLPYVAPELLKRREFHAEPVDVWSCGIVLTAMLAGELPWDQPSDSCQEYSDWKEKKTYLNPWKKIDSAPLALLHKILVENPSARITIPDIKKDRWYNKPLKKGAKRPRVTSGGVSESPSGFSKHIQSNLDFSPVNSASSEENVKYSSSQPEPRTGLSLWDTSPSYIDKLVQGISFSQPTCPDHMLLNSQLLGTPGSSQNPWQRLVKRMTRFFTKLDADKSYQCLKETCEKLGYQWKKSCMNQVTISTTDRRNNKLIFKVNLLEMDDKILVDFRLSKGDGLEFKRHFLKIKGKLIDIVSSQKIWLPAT

Assay [2] has as its target E. Coli derived recombinant human full length Chk2 fused with GST (human, UniProt O96017 1-543).
A further assay addresses PKA.
Another assay has as its target purified CHK2 kinase (UniProt O96017 1-543).

Sequence of E. Coli derived recombinant human full length Chk2 fused with GST (O96017 whole entry, the tested form may be a part): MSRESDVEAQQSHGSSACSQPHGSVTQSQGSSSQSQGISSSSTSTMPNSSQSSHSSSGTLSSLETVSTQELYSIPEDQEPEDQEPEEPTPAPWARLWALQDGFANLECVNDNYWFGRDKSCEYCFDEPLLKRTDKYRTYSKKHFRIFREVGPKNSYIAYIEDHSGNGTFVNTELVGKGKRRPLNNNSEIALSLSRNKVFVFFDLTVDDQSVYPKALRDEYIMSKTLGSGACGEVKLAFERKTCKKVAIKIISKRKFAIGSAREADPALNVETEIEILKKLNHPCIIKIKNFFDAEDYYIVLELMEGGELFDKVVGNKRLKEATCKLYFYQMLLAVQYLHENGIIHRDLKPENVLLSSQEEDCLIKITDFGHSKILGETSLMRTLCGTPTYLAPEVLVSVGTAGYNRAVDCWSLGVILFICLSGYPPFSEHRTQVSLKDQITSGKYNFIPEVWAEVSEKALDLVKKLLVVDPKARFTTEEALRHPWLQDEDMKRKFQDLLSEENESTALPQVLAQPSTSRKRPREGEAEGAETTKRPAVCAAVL
Sequence of purified CHK2 kinase (O96017 whole entry): as the sequence (O96017 whole entry, the tested form may be a part) above

For the molecule [dBpa][dS][dW][dS][dPhe(4-NO2)][dCha][dR][dR][dR][dQ][dR][dR] (also: cyclised or stapled (no detail)) [CBP603], the “Kinase inhibition analysis of peptides (phosphorylation of serine 216 on GST-Cdc25C 167-267, enzyme linked immune assay)” value (“Kinase inhibition analysis of peptides” below) came to 15.5 in assay [1] and 18.1 in assay [2].
With [dBpa][dD][dS][dW][dS][dPhe(F5)][dCha][dR][dR][dR][dQ][dR][dR] (also: cyclised or stapled (no detail)) [CBP505], the results for the “Kinase inhibition analysis of peptides” value in assay [1] and in assay [2] were 63.4 and more than 100, respectively.

B1: CBP440 (peptide)
peptide: YGRKKRRQRRRXFXYY
modifications: (l-Tyr)(l-Gly)(l-Arg)(l-Lys)(l-Lys)(l-Arg)(l-Arg)(l-Gln)(l-Arg)(l-Arg)(l-Arg)(l-Cha)(l-Phe-2,3,4,5,6-F)(l-aminoundecanoic acid)(l-Tyr)(l-Tyr): position 12 cyclohexyl-alanine; position 13 pentafluoro-phenylalanine; position 14 aminoundecanoic acid
Take B1: the “IC50 in µM, kinase inhibition analysis (PepTag Non-Radioactive Protein Kinase Assay)” value with PKA was 180 µM; with purified CHK2 kinase, 8 µM.
Take [dBpa][dS][dW][dS][dPhe(F5)][dCha][dR][dR][dR][dQ][dR][dR] [CBP501]: the “Kinase inhibition analysis of peptides” value in assay [1] came out at 7.9; in assay [2], 18.6.
For [dY][dBpa][dS][dW][dS][dPhe(F5)][dCha][dR][dR][dR][dQ][dR][dR] [CBP500], in that order: 5.6 and 8.
On to [dY][dY][dS]G[dS][dR][dPhe(F5)][dCha][dR][dR][dR][dQ][dR][dR][dK][dK][dR]G[dY] [CBP450], for which the figures for the “IC50 in µM, kinase inhibition analysis (PepTag Non-Radioactive Protein Kinase Assay)” value in the assay with PKA and with purified CHK2 kinase were more than 400 µM and 10 µM, respectively.
